In paper PMC466950 (Science Advances, 2024):
Values belong to the molecule of their own block, whether it stands above or below them.

Tests used:
[1] = biological target: porcine E2 of native PDHc (Sus scrofa domesticus (endogenous in porcine liver)); experiment: gel densitometry of the purified complex
[2] = biological target: human E2 subunit within hCore (human) (UniProt P10515); experiment: gel densitometry of the purified complex
[3] = biological target: the molecule itself; experiment: cryo-EM structure

E3BP chains per 60-subunit core (E3BP molecules per 60-subunit assembly) [1]: 13
Molecule: porcine E3BP of native PDHc (natural protein)

E3BP chains per 60-subunit core (E3BP molecules per 60-subunit assembly) [2]: 13
Molecule: human E3BP subunit within hCore (from UniProt O00330 54-501) (natural protein)

B1: human E2 homo-60-mer (enzyme)
chain: SLPPHQKVPLPSLSPTMQAGTIARWEKKEGDKINEGDLIAEVETDKATVGFESLEECYMAKILVAEGTRDVPIGAIICITVGKPEDIEAFKNYTLDSSAAPTPQAAPAPTPAATASPPTPSAQAPGSSYPPHMQVLLPALSPTMTMGTVQRWEKKVGEKLSEGDLLAEIETDKATIGFEVQEEGYLAKILVPEGTRDVPLGTPLCIIVEKEADISAFADYRPTEVTDLKPQVPPPTPPPVAAVPPTPQPLAPTPSAPCPATPAGPKGRVFVSPLAKKLAVEKGIDLTQVKGTGPDGRITKKDIDSFVPSKVAPAPAAVVPPTGPGMAPVPTGVFTDIPISNIRRVIAQRLMQSKQTIPHYYLSIDVNMGEVLLVRKELNKILEGRSKISVNDFIIKASALACLKVPEANSSWMDTVIRQNHVVDVSVAVSTPAGLITPIVFNAHIKGVETIANDVVSLATKAREGKLQPHEFQGGTFTISNLGMFGIKNFSAIINPPQACILAIGASEDKLVPADNEKGFDVASMMSVTLSCDHRVVDGAVGAQWLAEFRKYLEKPITMLL
stoichiometry N [3]: 60 subunits

B2: human E2 subunit within hCore (enzyme)
chain: SLPPHQKVPLPSLSPTMQAGTIARWEKKEGDKINEGDLIAEVETDKATVGFESLEECYMAKILVAEGTRDVPIGAIICITVGKPEDIEAFKNYTLDSSAAPTPQAAPAPTPAATASPPTPSAQAPGSSYPPHMQVLLPALSPTMTMGTVQRWEKKVGEKLSEGDLLAEIETDKATIGFEVQEEGYLAKILVPEGTRDVPLGTPLCIIVEKEADISAFADYRPTEVTDLKPQVPPPTPPPVAAVPPTPQPLAPTPSAPCPATPAGPKGRVFVSPLAKKLAVEKGIDLTQVKGTGPDGRITKKDIDSFVPSKVAPAPAAVVPPTGPGMAPVPTGVFTDIPISNIRRVIAQRLMQSKQTIPHYYLSIDVNMGEVLLVRKELNKILEGRSKISVNDFIIKASALACLKVPEANSSWMDTVIRQNHVVDVSVAVSTPAGLITPIVFNAHIKGVETIANDVVSLATKAREGKLQPHEFQGGTFTISNLGMFGIKNFSAIINPPQACILAIGASEDKLVPADNEKGFDVASMMSVTLSCDHRVVDGAVGAQWLAEFRKYLEKPITMLL
modifications: one lipoamide in each of the two lipoyl domains (fully lipoylated by ESI-MS); N-terminal methionine present
binding result [3]: binds
